The values that follow come from PMC10875708 (2024).

The labels stand for the following.
B1: Stearoyl-CoA desaturase (SCD1) [human (endogenous in HCT116)] / Sulfotransferase family 2B member 1 (SULT2B1) [human (endogenous in HCT116)] (parent complex)
chain 1: MPAHLLQDDISSSYTTTTTITAPPSRVLQNGGDKLETMPLYLEDDIRPDIKDDIYDPTYKDKEGPSPKVEYVWRNIILMSLLHLGALYGITLIPTCKFYTWLWGVFYYFVSALGITAGAHRLWSHRSYKARLPLRLFLIIANTMAFQNDVYEWARDHRAHHKFSETHADPHNSRRGFFFSHVGWLLVRKHPAVKEKGSTLDLSDLEAEKLVMFQRRYYKPGLLMMCFILPTLVPWYFWGETFQNSVFVATFLRYAVVLNATWLVNSAAHLFGYRPYDKNISPRENILVSLGAVGEGFHNYHHSFPYDYSASEYRWHINFTTFFIDCMAALGLAYDRKKVSKAAILARIKRTGDGNYKSG
chain 2: MDGPAEPQIPGLWDTYEDDISEISQKLPGEYFRYKGVPFPVGLYSLESISLAENTQDVRDDDIFIITYPKSGTTWMIEIICLILKEGDPSWIRSVPIWERAPWCETIVGAFSLPDQYSPRLMSSHLPIQIFTKAFFSSKAKVIYMGRNPRDVVVSLYHYSKIAGQLKDPGTPDQFLRDFLKGEVQFGSWFDHIKGWLRMKGKDNFLFITYEELQQDLQGSVERICGFLGRPLGKEALGSVVAHSTFSAMKANTMSNYTLLPPSLLDHRRGAFLRKGVCGDWKNHFTVAQSEAFDRAYRKQMRGMPTFPWDEDPEEDGSPDPEPSPEPEPKPSLEPNTSLEREPRPNSSPSPSPGQASETPHPRPS

The variants in this assay derive from B1. Briefly: co-IP (IP: SCD1, IB: SULT2B1), band quantification; HCT116 cells; parent: 1; read off a plot.
Regarding chain 1 MPAHLLQDDISSSYTTTTTITAPPSRVLQNGGDKLETMPLYLEDDIRPDIKDDIYDPTYKDKEGPSPKVEYVWRNIILMSLLMLGALYGITLIPTCKFYTWLWGVFYYFVSALGITAGAHRLWSHRSYKARLPLRLFLIIANTMAFQNDVYEWARDHRAHHKFSETHADPHNSRRGFFFSHVGWLLVRKHPAVKEKGSTLDLSDLEAEKLVMFQRRYYKPGLLMMCFILPTLVPWYFWGETFQNSVFVATFLRYAVVLNATWLVNSAAHLFGYRPYDKNISPRENILVSLGAVGEGFHNYHHSFPYDYSASEYRWHINFTTFFIDCMAALGLAYDRKKVSKAAILARIKRTGDGNYKSG [chain 1 H83M], the ratio to parent is approximately 1.2. As to chain 1 MPAHLLQDDISSSYTTTTTITAPPSRVLQNGGDKLETMPLYLEDDIRPDIKDDIYDPTYKDKEGPSPKVEYVWRNIILMELLHLGALYGITLIPTCKFYTWLWGVFYYFVSALGITAGAHRLWSHRSYKARLPLRLFLIIANTMAFQNDVYEWARDHRAHHKFSETHADPHNSRRGFFFSHVGWLLVRKHPAVKEKGSTLDLSDLEAEKLVMFQRRYYKPGLLMMCFILPTLVPWYFWGETFQNSVFVATFLRYAVVLNATWLVNSAAHLFGYRPYDKNISPRENILVSLGAVGEGFHNYHHSFPYDYSASEYRWHINFTTFFIDCMAALGLAYDRKKVSKAAILARIKRTGDGNYKSG [chain 1 S80E], the ratio to parent was approximately 0.5.

In the case of chain 1 MPAHLLQDDISSSYTTTTTITAPPSRVLQNGGDKLETMPLYLEDDIRPDIKDDIYDPTYKDKEGPSPKVEYVWRNIILMRLLHLGALYGITLIPTCKFYTWLWGVFYYFVSALGITAGAHRLWSHRSYKARLPLRLFLIIANTMAFQNDVYEWARDHRAHHKFSETHADPHNSRRGFFFSHVGWLLVRKHPAVKEKGSTLDLSDLEAEKLVMFQRRYYKPGLLMMCFILPTLVPWYFWGETFQNSVFVATFLRYAVVLNATWLVNSAAHLFGYRPYDKNISPRENILVSLGAVGEGFHNYHHSFPYDYSASEYRWHINFTTFFIDCMAALGLAYDRKKVSKAAILARIKRTGDGNYKSG [chain 1 S80R], the ratio to parent is approximately 0.35. On to chain 1 MPAHLLQDDISSSYTTTTTITAPPSRVLQNGGDKLETMPLYLEDDIRPDIKDDIYDPTYKDKEGPSPKVEYVWRNIILMFLLHLGALYGITLIPTCKFYTWLWGVFYYFVSALGITAGAHRLWSHRSYKARLPLRLFLIIANTMAFQNDVYEWARDHRAHHKFSETHADPHNSRRGFFFSHVGWLLVRKHPAVKEKGSTLDLSDLEAEKLVMFQRRYYKPGLLMMCFILPTLVPWYFWGETFQNSVFVATFLRYAVVLNATWLVNSAAHLFGYRPYDKNISPRENILVSLGAVGEGFHNYHHSFPYDYSASEYRWHINFTTFFIDCMAALGLAYDRKKVSKAAILARIKRTGDGNYKSG [chain 1 S80F], for which the ratio to parent is approximately 0.4. As for chain 1 MPAHLLQDDISSSYTTTTTITAPPSRVLQNGGDKLETMPLYLEDDIRPDIKDDIYDPTYKDKEGPSPKVEYVWRNIILMSLLHLGALYGITLIPTCKFYTWLWGVFYYFVSALGITAGAHRLWSHRSYKARLPLRLFLIIANTMAFQNDVYEWARDHRAHHKFSETHADPHNSRRGFAFSHVGWLLVRKHPAVKEKGSTLDLSDLEAEKLVMFQRRYYKPGLLMMCFILPTLVPWYFWGETFQNSVFVATFLRYAVVLNATWLVNSAAHLFGYRPYDKNISPRENILVSLGAVGEGFHNYHHSFPYDYSASEYRWHINFTTFFIDCMAALGLAYDRKKVSKAAILARIKRTGDGNYKSG [chain 1 F178A], the ratio to parent was approximately 2.4. Next, chain 1 MPAHLLQDDISSSYTTTTTITAPPSRVLQNGGDKLETMPLYLEDDIRPDIKDDIYDPTYKDKEGPSPKVEYVWRNIILMSLLHLGALYGITLIPTCKFYTWLWGVFYYFVSALGITAGAHRLWSHRSYKARLPLRLFLIIANTMAFQNDVYEWARDHRAHHKFSETHADPHNSRRGFGFSHVGWLLVRKHPAVKEKGSTLDLSDLEAEKLVMFQRRYYKPGLLMMCFILPTLVPWYFWGETFQNSVFVATFLRYAVVLNATWLVNSAAHLFGYRPYDKNISPRENILVSLGAVGEGFHNYHHSFPYDYSASEYRWHINFTTFFIDCMAALGLAYDRKKVSKAAILARIKRTGDGNYKSG [chain 1 F178G]: approximately 2.6.
